Laboratory results as given in the supplement of paper PMC9170038.

Tested on: MS2 coat protein
Experiment: apparent KD of MS2 coat protein; designed switch direction (-1 OFF switch, 1 ON switch): -1; higher = weaker reporter binding
In short: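 Stalled E. coli RNA polymerase transcribed designed RNA switches on Illumina chips, which were then titrated with SNAP-549-labelled MS2 coat protein, doubling from 0.7 or 1.5 nM to 3 µM. Steps lasted from 0.8–1.5 h at the lowest concentration to 10–20 min at the highest. The apparent KD is each design's median over clusters of curve-fitted normalised fluorescence.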

[1] = input ligand: microRNA oligo, concentration not stated
[2] = Eterna round: R95, input ligand: microRNA oligo, concentration not stated
[3] = Eterna round: R95, input ligand: FMN 200 uM
[4] = Eterna round: R95, input ligand: none

Row | Sequence | apparent KD of MS2 coat protein (input ligand: FMN 200 uM) | apparent KD of MS2 coat protein (input ligand: none) | apparent KD of MS2 coat protein [2] | further results
1 | GGUACUCAAAGAGUACCAAUACGAACAUGAGGAUCACCCAUGUAGGAUAUGCUACUCAAAGAGUAGCAGAAGGAUAUGAUCCCU [Far Half Aptamer v12] (Eterna round: R96, puzzle: Exclusion NG 3) | 211 nM | 126 nM |  | apparent KD of MS2 coat protein [1]: 99.6 nM
2 | UCGGCGCGAGGAUAUACGUUUGCUUUUUAGGAUCGUGGCGUACAUGAGGAUCACCCAUGUAGAAGGCGCGCCGC [Apr-15 SS2-28] (puzzle: Exclusion 2) |  |  | 12.4 nM | 
3 | CAGUACUGAGGAUAUACAUGAGGAUCACCCAUGUGAACCAGCUAGGAUACUAGCAAAAGUAGAAGGCAGUACUG [Mat - Exclusion 3 - Eli Mod - D17] (Eterna round: R97, puzzle: Exclusion 3) | 67 nM | 71.4 nM |  | 
4 | CAGUACUGAGGAUAUACAUGAGGAUCACCCAUGUGUUCCAGCUAGGAAACUAGCAAAGGUAGAAGGCAGUACUG [salish99_ex3_r3_065] (Eterna round: R96, puzzle: Exclusion 3) |  |  |  | apparent KD of MS2 coat protein [1]: 23.2 nM
5 | UGACACACCUGAGGAUAUUCUGAACGUUUCCCAGAAGAAGGUAGGUACAGCGGGAGCGCCACAUGAGGAUCACCCAUGUCUACC [Eternabot solution 46] (Eterna round: R96, puzzle: Exclusion NG 1) | 126 nM | 142 nM |  | apparent KD of MS2 coat protein [1]: 103 nM
6 | AGAUCACAUGAGGAUCACCCAUGUGAGGAUAUAGAUUCAAGAGCUUCGGCUCUAAAGUCUAGAAGGCACUAUGA [EX1 #47] (Eterna round: R97, puzzle: Exclusion 1) | 29.1 nM | 25.4 nM |  | 
7 | GUUUGCACGCUGCGGUCCUACAUGAGGAUCACCCAUGUGGUCUGGUGGCGUGGGUCGCCGGACUUGGCUCGUCUUGG [salish99_S_TOV1_R5_039] (Eterna round: R97, puzzle: Sensor, turn-off variant 1) | 15 nM | 14.8 nM |  | 
8 | CUAGUAUAUCAGGAUAUGAUAUUGUGUAGUAAAUCAGAAGGGAUGACAUGAGGAUCACCCAUGUUAAGGGAUGA [JR_Ex6_Sub047] (Eterna round: R97, puzzle: Exclusion 6) | 41.4 nM | 54.3 nM |  | 
9 | CGGGUGCGGUGAGGAUAUCCGAAAGGAAGUGUAGGAGAAGGCACCAAGAACAUGAGGAUCACCCAUGUGACCUCAUAAGCCCGG [PowerStrip EXNG 1.9] (Eterna round: R96, puzzle: Exclusion NG 1) | 34.9 nM | 406 nM |  | apparent KD of MS2 coat protein [1]: 254 nM
10 | AGUAACAGAGGAUAUACUGUUUUAUGUGUUUGUUAUUUUGAACAUGAGGAUCACCCAUGUAGAAGGCUGAAUAA [JMF 92] (puzzle: Exclusion 2) |  |  | 20 nM | 
11 | CCUCCGUAUAAGGAUAUCGUCCAGGAAACUGGACGAGAAGGUAUGACAUGAGGAUCACCCAUGUGAAAGUGAUG [Mod of Brourd 25 - Jieux - Exclusion 6] (Eterna round: R97, puzzle: Exclusion 6) | 212 nM | 71.4 nM |  | 
12 | ACUUGUGUUGAGGAUAUGCGCCGGCUCGCUGGCGCAGAAGGCGGCACAUGAGGAUCACCCAUGUCAGUUCGCGC [salish99_ex6_r004_001] (Eterna round: R97, puzzle: Exclusion 6) | 138 nM | 16.8 nM |  | 
13 | GUGGUGGGUUUUUCGAGUAACAUGAGGAUCACCCAUGUAUUAGUUGGAUGUAUCAAGCUUUGUGCUCGACUUAUAUA [JR_SV3TOV1_Sub044] (puzzle: Sensor v3, turn-off variant 1) |  |  | 442 nM | apparent KD of MS2 coat protein [3]: 659 nM; apparent KD of MS2 coat protein [4]: 696 nM
14 | ACAAAGGUAGGAUAUCGGACUAUGGACAUGAGGAUCACCCAUGUGCGUCCAGUGUCCAACCGAGAAGGACCCAAAA [Beinge] (puzzle: Exclusion 5) |  |  | 86.1 nM | apparent KD of MS2 coat protein [3]: 83.2 nM; apparent KD of MS2 coat protein [4]: 91.6 nM
15 | GAUUGACAUGAGGAUCACCCAUGUGAGGAUAUCGGCCGGAUCUUGUUAGCUUCCAUCGCGAGAAGGCACAUAGG [Exclusion 1 V33] (puzzle: Exclusion 1) |  |  | 55.2 nM | 
16 | AGAUAGAGCUGAGGAUAUGAGAAUAGAAAGAAAUCAGAAGGCAGACAUGAGGAUCACCCAUGUGAGUUCUUGAGAUUACAUGGU [Prohibition 43 - Jieux - Exclusion NG 1] (Eterna round: R96, puzzle: Exclusion NG 1) | 498 nM | 247 nM |  | apparent KD of MS2 coat protein [1]: 221 nM
17 | AUGGACGCAGGAUAUACAUGAGGAUCACCCAUGUUAGGGUUAAGAGAAGGAAGGGAGAGUAGAAGGGCGAGAGU [JR_Exclu3_Sub0100] (puzzle: Exclusion 3) |  |  | 110 nM | 
18 | UACAUGAGGAUCACCCAUGUUUUGUCGUGUAUGGUAUUUAUCUAGGAUAUCAUGUUAUUUAUUUAUGAGAAGGAGAAUAUUAAU [JMF's solution 24] (Eterna round: R96, puzzle: Exclusion NG 3) | 32.6 nM | 32.5 nM |  | apparent KD of MS2 coat protein [1]: 29.1 nM

Row | Sequence | apparent KD of MS2 coat protein (input ligand: FMN 200 uM) | apparent KD of MS2 coat protein (input ligand: none) | apparent KD of MS2 coat protein [2] | further results
19 | GACAGGGCAGGAUAUCGAGAUCCGCACAUGAGGAUCACCCAUGUUCAGUCGAAAGACUGACGAGAAGGGCCGUGUC [Omei Ex5 E4] (Eterna round: R97, puzzle: Exclusion 5) | 1190 nM | 1390 nM |  | 
20 | UGAGCUUGAGGAUAUACAAGCUUGAGCUGAAAAGUUCGAGUACAUGAGGAUCACCCAUGUAGAAGGCGAGUUCG [-26.7, -25.2 kcal, A 31% 1bis and 1] (Eterna round: R97, puzzle: Exclusion 2) | 39.7 nM | 26 nM |  | 
21 | AAUUUACAUGAGGAUCACCCAUGUGAGGAUAUGAUACUAUGUACUUCGGUACAUAGUAUCAGAAGGCAUGUGAA [Ex1-3: 92] (puzzle: Exclusion 1) |  |  | 133 nM | 
22 | CUGGAGUCAGGAUAUAGGGCGGCUAUAACGCUCGCGCCGACCUAGAAGGGACUUGAGGAUCACCCAAGUAAAAU [Teerlaxe] (Eterna round: R97, puzzle: Exclusion 4) | 167 nM | 55.1 nM |  | 
23 | UUUAUGUGAGGAUAUGCGGGCGGGCGUGAAAAUGUUUGUUUGUAGAAGGUACAUGAGGAUCACCCAUGUAGUGG [-22, -21.6 kcal, 24% A] (Eterna round: R97, puzzle: Exclusion 4) | 180 nM | 57.2 nM |  | 
24 | AAUACAAGCUAUUGAUCCCACAUGAGGAUCACCCAUGUAGCUGGCGGUGACACCUCCAUUACGAUAGCUCGUCUUAU [Sensor-V1 #56] (Eterna round: R97, puzzle: Sensor, turn-off variant 1) | 796 nM | 1670 nM |  | 
25 | GUAACAUGCUGGUGAUCAUACAUGAGGAUCACCCAUGUAACAAGCUUUUUGCUCGUCUUAAUUUAAUUGAUUACUAG [Stov1/8-A2] (Eterna round: R97, puzzle: Sensor, turn-off variant 1) | 137 nM | 106 nM |  | 
26 | UCGGUGACAGGAUAUACAUGAGGAUCACCCAUGUUAAGAAGAGAAAGGGCAGGAAGAGGUAGAAGGGUCGCUGU [JL JR_Exclu3_Sub033 mod] (puzzle: Exclusion 3) |  |  | 37.8 nM | 
27 | UUUAAUUUUUUUUUUUUACAAGCUUUUUGCUCGUCUUAUACAUGAGGAUCACCCAUGUAGGUGAGGAGUAAAUUAUC [JMF 62] (puzzle: Sensor v3, turn-off variant 2) |  |  | 111 nM | apparent KD of MS2 coat protein [3]: 15.5 nM; apparent KD of MS2 coat protein [4]: 14.8 nM
28 | GCCAGAGCAGGAUAUUCAAUAUCUCACAUGAGGAUCACCCAUGUCCAUCGAAAGAUGGAGGGAGAAGGGCUCUGGC [Mat - Exclusion 5 - Eli mod - D92] (puzzle: Exclusion 5) |  |  | 45.5 nM | apparent KD of MS2 coat protein [3]: 37.3 nM; apparent KD of MS2 coat protein [4]: 64.7 nM
29 | UUUUUACGAGGAUAUCGUUUUUUUCACAUGAGGAUCACCCAUGUUGUUUAUGUUGCGUUGCGAGAAGGCGUUUGUU [JR_E5_Sub063] (puzzle: Exclusion 5) |  |  | 24.2 nM | 
30 | AGGUCACAUGAGGAUCACCCAUGUGAGGAUAUAGACUCAAGAGCUUCGGCUCUCAAGUUUAGAAGGCGCAAUGA [EX1 #52] (Eterna round: R97, puzzle: Exclusion 1) | 31.7 nM | 31.2 nM |  | 
31 | GUGGCGGAUGCGAACAUGAGGAUCACCCAUGUACAGUCCCUACAGGAUAUCCGCAGUGCCUAGCAGGAGAAGGGUAGGAGCACA [Eternabot solution 40] (Eterna round: R96, puzzle: Exclusion NG 3) | 16 nM | 17.9 nM |  | apparent KD of MS2 coat protein [1]: 10.7 nM
32 | GUCAUCAAACAUGGGAUCAACAUGAGGAUCACCCAUGUUGACAAGUUUUUUGCUCGUCUUAUAAUAAGUUUGAUGAC [Antenna 9 - Jieux - Sensor, turn-off variant 1] (Eterna round: R97, puzzle: Sensor, turn-off variant 1) | 15.5 nM | 16.2 nM |  | 
33 | AUUGUAUGGGAAGGAUAUAGAAUAUUAUUUUAACAUGAGGAUCACCCAUGUAACCUUAUGUGUAGCUAGAAGGUCCGUUUAUUA [Title] (Eterna round: R96, puzzle: Exclusion NG 2) |  |  |  | apparent KD of MS2 coat protein [1]: 112 nM
34 | AGUACUAACACGAGAGUGUUAGUACAAUAAGCUUGUGUUACAUGAGGAUCACCCAUGUCCUCAUAAGCUCGUCUUAA [Mat - Sensor v3 - Turn-off var 2 - D58] (puzzle: Sensor v3, turn-off variant 2) |  |  | 727 nM | apparent KD of MS2 coat protein [3]: 41.3 nM; apparent KD of MS2 coat protein [4]: 42.5 nM
35 | UUUUUAUAUGAAGGAUAUACUAAACAUGAGGAUCACCCAUGUGGUGUUGUGAGUGAGAGAGAUAAGUAGAAGGUCAAUUAUUUU [JMF's solution 4] (Eterna round: R96, puzzle: Exclusion NG 2) | 348 nM | 90.8 nM |  | apparent KD of MS2 coat protein [1]: 62.6 nM
